The results in this text go back to patent WO2025083273A1 (dated 2025).

For test [1], the target named is T1, DR3-8i (human).
T1 construct: also called purified monomeric DR3-8i antigen protein
T1 chain: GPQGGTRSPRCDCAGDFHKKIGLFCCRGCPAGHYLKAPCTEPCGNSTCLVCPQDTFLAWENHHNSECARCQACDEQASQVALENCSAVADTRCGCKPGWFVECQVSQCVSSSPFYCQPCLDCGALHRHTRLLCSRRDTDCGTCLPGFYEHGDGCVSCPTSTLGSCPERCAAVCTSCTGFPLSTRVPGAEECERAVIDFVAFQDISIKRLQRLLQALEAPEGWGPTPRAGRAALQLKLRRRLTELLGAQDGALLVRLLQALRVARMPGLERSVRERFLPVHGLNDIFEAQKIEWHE
Nature of the test: BLI, IgG captured on protein A, DR3-8i in solution; Average. Background: Biolayer interferometry detects binding as a change in optical thickness at a sensor tip.

Test [2] deals with T1, DR3-8i. As to the kind of experiment: BLI, IgG captured on protein A, DR3-8i in solution; Experiment 1.
The target in test [3] is T2, human DR3 (TNFRSF25) expressed on cells (human, UniProt Q93038 25-417).
T2 sequence: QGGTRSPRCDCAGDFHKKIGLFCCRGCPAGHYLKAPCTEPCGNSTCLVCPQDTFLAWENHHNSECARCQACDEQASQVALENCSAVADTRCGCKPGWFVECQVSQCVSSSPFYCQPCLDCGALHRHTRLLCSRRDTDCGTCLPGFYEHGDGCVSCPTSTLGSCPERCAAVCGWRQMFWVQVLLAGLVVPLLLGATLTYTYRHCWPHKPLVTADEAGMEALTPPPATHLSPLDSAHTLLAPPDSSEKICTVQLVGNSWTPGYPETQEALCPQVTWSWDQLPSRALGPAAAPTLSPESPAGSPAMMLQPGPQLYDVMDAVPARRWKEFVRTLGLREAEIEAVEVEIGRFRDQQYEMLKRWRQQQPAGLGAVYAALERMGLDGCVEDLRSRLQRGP
Nature of the test: cell-based or functional assay.

For test [4], the target named is T1, DR3-8i. Nature of the test: BLI, IgG captured on protein A, DR3-8i in solution; Experiment 2.

B1: VHg9/VLg11 (antibody, human IgG1, V domains shown)
VH: EVQLVESGGGLVKPGGSLRLSCAASGFTFSSYAMSWVRQAPGKGLEWVSTISDGDSYSYFPDSVKDRFTISRDNAKNSLYLQMNSLRAEDTAVYYCARDRIYGSVQYYAMDYWGQGTLVTVSS
VL: DIVMTQSPDSLAVSLGERATINCRASESVEFSGTSLMQWYQQKPGQPPKLLIYAASNVESGVPDRFSGSGSGTDFTLTISSLQAEDVAVYYCQQSRKLPYTFGQGTKLEIK
notes: human IgG1
The term Kd denotes a measure of binding affinity in units of concentration. Higher therefore signals lower affinity. Consider B1, for which the Kd in the test with DR3-8i [1] stood at 188 pM; in the test with DR3-8i [2] it was 192 pM; in the test with DR3-8i [4], 184 pM. The “EC50 (pM), DR3 Jurkat reporter” value in test [3] was 261 pM. Moreover, the “Signal (FLU)” value in test [3] turned out to be 3.27e+06 FLU.

B2: VHg1/VLg12 (antibody, human IgG1, V domains shown)
VH: QVQLVQSGGGLVQPGGSLRLSCAASGFTFSSYAMSWVRQAPGKGLEWVSTISDGDSYSYFPDSVKDRFTISRDNSKNTLYLQMNSLRAEDTSVYYCARDRIYGSVQYYAMDYWGQGTLVTVSS
VL: EIVLTQSPATLSLSPGERATLSCRASESVEFSGTSLMQWYQQKPGQAPRLLIYAASNVESGIPARFSGSGSGTDFTLTISSLEPEDFAVYYCQQSRKLPYTFGQGTKLEIK
notes: human IgG1
For B2, the Kd with DR3-8i [1] is 22.8 pM; with DR3-8i [2], 1 pM; with DR3-8i [4], 44.5 pM. Further, in test [3], the “EC50 (pM), DR3 Jurkat reporter” value stood at 322 pM. Also, in test [3], the “Signal (FLU)” value was determined as 2.76e+06 FLU.

B3: VHg2/VLg11 (antibody, human IgG1, V domains shown)
VH: QMQLVQSGGGLVKPGGSLRLSCAASGFTFSSYAMSWIRQAPGKGLEWVSTISDGDSYSYFPDSVKDRFTISRDNAKNSLYLQMNSLRAEDTAVYYCTRDRIYGSVQYYAMDYWGRGTLVTVSS
VL: DIVMTQSPDSLAVSLGERATINCRASESVEFSGTSLMQWYQQKPGQPPKLLIYAASNVESGVPDRFSGSGSGTDFTLTISSLQAEDVAVYYCQQSRKLPYTFGQGTKLEIK
notes: human IgG1
For the molecule B3, the Kd in the test with DR3-8i [1] came to 53.6 pM; in the test with DR3-8i [2] it was 63.6 pM; with DR3-8i [4] it was 43.5 pM. For the same molecule, the “EC50 (pM), DR3 Jurkat reporter” value in test [3] was determined as 136 pM. In addition, in test [3], the “Signal (FLU)” value is 2.9e+06 FLU.

B4: VHg10/VLg5 (antibody, human IgG1, V domains shown)
VH: EVQLVESGGGLVQPGGSLRLSCAASGFTFSSYAMSWVRQAPGKGLEWVSTISDGDSYSYFPDSVKDRFTISRDNSKNTLYLQMNSLRAEDTAVYYCARDRIYGSVQYYAMDYWGQGTLVTVSS
VL: EIVLTQSPGTLSLSPGERGTLSCRASESVEFSGTSLMQWYQQKPGQAPRLLIYAASNVESGIPDRFSGSGSETDFTLTISRLEPEDLAVYYCQQSRKLPYTFGQGTRLEIK
notes: human IgG1
For B4, the Kd amounted to 246 pM with DR3-8i [1], 233 pM with DR3-8i [2] and 259 pM in the test with DR3-8i [4]. Further, the “EC50 (pM), DR3 Jurkat reporter” value in test [3] worked out at 634 pM. The “Signal (FLU)” value in test [3] came out at 3.08e+06 FLU.

B5: VHg2/VLg12 (antibody, human IgG1, V domains shown)
VH: QMQLVQSGGGLVKPGGSLRLSCAASGFTFSSYAMSWIRQAPGKGLEWVSTISDGDSYSYFPDSVKDRFTISRDNAKNSLYLQMNSLRAEDTAVYYCTRDRIYGSVQYYAMDYWGRGTLVTVSS
VL: EIVLTQSPATLSLSPGERATLSCRASESVEFSGTSLMQWYQQKPGQAPRLLIYAASNVESGIPARFSGSGSGTDFTLTISSLEPEDFAVYYCQQSRKLPYTFGQGTKLEIK
notes: human IgG1
Turning to B5, the Kd turned out to be 121 pM in the test with DR3-8i [1], 64.4 pM with DR3-8i [2] and 177 pM with DR3-8i [4]. Besides, the “EC50 (pM), DR3 Jurkat reporter” value in test [3] is 117 pM. In test [3], the “Signal (FLU)” value was found to be 2.68e+06 FLU.

B6: VHg6/VLg4 (antibody, human IgG1, V domains shown)
VH: QVQLQQSGGGLVQPGGSLRLSCAASGFTFSSYAMSWVRQAPGKGLEWVATISDGDSYSYFPDSVKDRFTISRDNARNSLYLQMNSLRAEDTAVYYCARDRIYGSVQYYAMDYWGRGTLVTVSS
VL: DVVMTQSPDSLAVSLGERATISCRASESVEFSGTSLMQWYQQKPRQPLKLLIYAASNVESGVPDRFSGSGSGTDFTLTISSLQAEDVAVYYCQQSRKLPYTFGQGTRLEIK
notes: human IgG1
Regarding B6, the Kd in the test with DR3-8i [1] worked out at 198 pM; in the test with DR3-8i [2], 250 pM; in the test with DR3-8i [4], 146 pM. Moreover, in test [3], the “EC50 (pM), DR3 Jurkat reporter” value was 115 pM. The “Signal (FLU)” value in test [3] was determined as 2.68e+06 FLU.

B7: VHg10/VLg11 (antibody, human IgG1, V domains shown)
VH: EVQLVESGGGLVQPGGSLRLSCAASGFTFSSYAMSWVRQAPGKGLEWVSTISDGDSYSYFPDSVKDRFTISRDNSKNTLYLQMNSLRAEDTAVYYCARDRIYGSVQYYAMDYWGQGTLVTVSS
VL: DIVMTQSPDSLAVSLGERATINCRASESVEFSGTSLMQWYQQKPGQPPKLLIYAASNVESGVPDRFSGSGSGTDFTLTISSLQAEDVAVYYCQQSRKLPYTFGQGTKLEIK
notes: human IgG1
As for B7, the values for the Kd with DR3-8i [1], in the test with DR3-8i [2] and with DR3-8i [4] were 205 pM, 166 pM and 244 pM, respectively. Further, the “EC50 (pM), DR3 Jurkat reporter” value in test [3] is 245 pM. Also, in test [3], the “Signal (FLU)” value is 3.24e+06 FLU.

B8: VHg3/VLg12 (antibody, human IgG1, V domains shown)
VH: EVQLVQSGGGLVKPGGSLRLSCAASGFKFSSYAMSWVRQAPGKGLEWLSTISDGDSYSYFPDSVKDRFIISRDNAKNSLYLQMNSLRVEDTGVYYCARDRIYGSVQYYAMDYWGQGTLVTVSS
VL: EIVLTQSPATLSLSPGERATLSCRASESVEFSGTSLMQWYQQKPGQAPRLLIYAASNVESGIPARFSGSGSGTDFTLTISSLEPEDFAVYYCQQSRKLPYTFGQGTKLEIK
notes: human IgG1
Take B8: the Kd in the test with DR3-8i [1] was found to be 400 pM; in the test with DR3-8i [2], 390 pM; in the test with DR3-8i [4], 409 pM. For the same molecule, the “EC50 (pM), DR3 Jurkat reporter” value in test [3] was 1480 pM. Further, the “Signal (FLU)” value in test [3] was 2.6e+06 FLU.

B9: VHg10/VLg4 (antibody, human IgG1, V domains shown)
VH: EVQLVESGGGLVQPGGSLRLSCAASGFTFSSYAMSWVRQAPGKGLEWVSTISDGDSYSYFPDSVKDRFTISRDNSKNTLYLQMNSLRAEDTAVYYCARDRIYGSVQYYAMDYWGQGTLVTVSS
VL: DVVMTQSPDSLAVSLGERATISCRASESVEFSGTSLMQWYQQKPRQPLKLLIYAASNVESGVPDRFSGSGSGTDFTLTISSLQAEDVAVYYCQQSRKLPYTFGQGTRLEIK
notes: human IgG1
For B9, the Kd with DR3-8i [1] was 204 pM; with DR3-8i [2] it was 242 pM; with DR3-8i [4], 167 pM. The “EC50 (pM), DR3 Jurkat reporter” value in test [3] turned out to be 570 pM. Moreover, the “Signal (FLU)” value in test [3] was determined as 3.17e+06 FLU.

B10: VHg3/VLg11 (antibody, human IgG1, V domains shown)
VH: EVQLVQSGGGLVKPGGSLRLSCAASGFKFSSYAMSWVRQAPGKGLEWLSTISDGDSYSYFPDSVKDRFIISRDNAKNSLYLQMNSLRVEDTGVYYCARDRIYGSVQYYAMDYWGQGTLVTVSS
VL: DIVMTQSPDSLAVSLGERATINCRASESVEFSGTSLMQWYQQKPGQPPKLLIYAASNVESGVPDRFSGSGSGTDFTLTISSLQAEDVAVYYCQQSRKLPYTFGQGTKLEIK
notes: human IgG1
In the case of B10, the values for the Kd in the test with DR3-8i [1], with DR3-8i [2] and in the test with DR3-8i [4] were 491 pM, 364 pM and 618 pM, respectively. The “EC50 (pM), DR3 Jurkat reporter” value in test [3] was 1230 pM. Further, the “Signal (FLU)” value in test [3] was found to be 2.38e+06 FLU.

B11: VHg3/VLg13 (antibody, human IgG1, V domains shown)
VH: EVQLVQSGGGLVKPGGSLRLSCAASGFKFSSYAMSWVRQAPGKGLEWLSTISDGDSYSYFPDSVKDRFIISRDNAKNSLYLQMNSLRVEDTGVYYCARDRIYGSVQYYAMDYWGQGTLVTVSS
VL: DIQMTQSPSSLSASVGDRVTITCRASESVEFSGTSLMQWYQQKPGKAPKLLIYAASNVESGVPSRFSGSGSGTDFTFTISSLQPEDIATYYCQQSRKLPYTFGQGTKLEIK
notes: human IgG1
Take B11: the Kd in the test with DR3-8i [1] was 427 pM; with DR3-8i [2] it was 464 pM; with DR3-8i [4] it was 389 pM. For the same molecule, in test [3], the “EC50 (pM), DR3 Jurkat reporter” value came out at 1770 pM. Also, the “Signal (FLU)” value in test [3] is 2.66e+06 FLU.

B12: VHg6/VLg12 (antibody, human IgG1, V domains shown)
VH: QVQLQQSGGGLVQPGGSLRLSCAASGFTFSSYAMSWVRQAPGKGLEWVATISDGDSYSYFPDSVKDRFTISRDNARNSLYLQMNSLRAEDTAVYYCARDRIYGSVQYYAMDYWGRGTLVTVSS
VL: EIVLTQSPATLSLSPGERATLSCRASESVEFSGTSLMQWYQQKPGQAPRLLIYAASNVESGIPARFSGSGSGTDFTLTISSLEPEDFAVYYCQQSRKLPYTFGQGTKLEIK
notes: human IgG1
Regarding B12, the Kd is 157 pM with DR3-8i [1], 227 pM with DR3-8i [2] and 87.6 pM with DR3-8i [4]. The “EC50 (pM), DR3 Jurkat reporter” value in test [3] amounted to 134 pM. Further, the “Signal (FLU)” value in test [3] worked out at 2.47e+06 FLU.

B13: VHg10/VLg12 (antibody, human IgG1, V domains shown)
VH: EVQLVESGGGLVQPGGSLRLSCAASGFTFSSYAMSWVRQAPGKGLEWVSTISDGDSYSYFPDSVKDRFTISRDNSKNTLYLQMNSLRAEDTAVYYCARDRIYGSVQYYAMDYWGQGTLVTVSS
VL: EIVLTQSPATLSLSPGERATLSCRASESVEFSGTSLMQWYQQKPGQAPRLLIYAASNVESGIPARFSGSGSGTDFTLTISSLEPEDFAVYYCQQSRKLPYTFGQGTKLEIK
notes: human IgG1
For B13, the Kd was found to be 181 pM with DR3-8i [1], 175 pM in the test with DR3-8i [2] and 188 pM in the test with DR3-8i [4]. Further, the “EC50 (pM), DR3 Jurkat reporter” value in test [3] is 132 pM. The “Signal (FLU)” value in test [3] amounted to 3.56e+06 FLU.
